Laboratory results: US5750362A, “Methods for identifying substances with a potential herbicidal or growth-regulating action by means of plant transporter proteins, the use of the transporter proteins, and substances with a herbicidal and growth-regulating action” (BASF Aktiengesellschaft, priority 1993, dated 1998)
Blank lines part the entries; values can stand above or below the molecule they belong to.

What was measured:
[1] = molecular target: T1, ammonium transporter AMT1 (Arabidopsis thaliana, UniProt P54144); experiment: Substrate specificity, Km and Ki determination of the ammonium transporter in yeast strain 26972c; type: cell-based; settings: inhibition of methylamine transport by various concentrations of ammonium; read-out: Ki (inhibitor constant)
T1 construct: expressed in transfected cells; host or cells: Saccharomyces cerevisiae 26972c (mutations in MEP1 and MEP2)
T1 sequence (P54144 1-501): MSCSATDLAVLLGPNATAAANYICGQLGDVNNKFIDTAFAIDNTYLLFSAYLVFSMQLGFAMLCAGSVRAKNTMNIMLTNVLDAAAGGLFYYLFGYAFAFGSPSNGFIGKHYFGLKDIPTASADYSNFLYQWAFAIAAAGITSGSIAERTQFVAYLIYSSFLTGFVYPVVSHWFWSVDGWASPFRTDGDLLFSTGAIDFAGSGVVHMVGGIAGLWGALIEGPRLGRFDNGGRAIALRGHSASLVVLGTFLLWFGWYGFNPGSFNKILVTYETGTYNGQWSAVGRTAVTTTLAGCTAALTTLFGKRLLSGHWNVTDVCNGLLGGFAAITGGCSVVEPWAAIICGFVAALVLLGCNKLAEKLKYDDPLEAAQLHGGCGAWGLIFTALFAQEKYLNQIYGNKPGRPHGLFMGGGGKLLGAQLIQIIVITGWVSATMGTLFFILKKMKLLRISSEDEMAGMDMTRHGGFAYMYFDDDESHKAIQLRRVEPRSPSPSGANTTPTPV
Description: The investigations of the substrate specificity and the Km determinations are carried out with the yeast strain .music-natural. 26972c (Dubois & Grenson, Mol. Gen. Genet. 175: 67-76, 1979) which expresses the plant ammonium transporter AMT1. The method for this is as in Example 6, except for the fact that the methylamine substrate concentration is varied. […] To determine the affinity of the transport system for ammonium, the inhibition of methylamine transport by various concentration [sic] of ammonium is determined (inhibitor constant, Ki)

[2] = substrate: OC[C@H]1O[C@H](O[C@H]2[C@H](O)[C@@H](O)[C@H](O)O[C@@H]2CO)[C@H](O)[C@@H](O)[C@@H]1O; experiment: Substrate specificity and Km determination of the sucrose transporter in yeast strain SUSY7-pP62; type: cell-based, Solanum tuberosum; settings: other: substrate of the sucrose transporter; substrate concentration varied, no inhibitors
Description: (§1) The investigations of the substrate specificity and the Km determination are carried out in the yeast strain SUSY7-pP62 (StSUT1) (Riesmeier et al., 1993, Plant Cell 5:1591-1598), which expresses the sucrose transporter from Solanum tuberosum. This entails carrying out the method of Example 3 apart from the fact that the substrate concentration is changed and no potential inhibitors are added. […]

[3] = substrate: OC[C@H]1O[C@@](CO)(O[C@H]2O[C@H](CO)[C@@H](O)[C@H](O)[C@H]2O)[C@@H](O)[C@@H]1O; experiment: as above; type: cell-based, Solanum tuberosum; settings: other: substrate of the sucrose transporter; substrate concentration varied, no inhibitors
Description: as §1

Ki [1]: < 10 µM
Molecule: N [ammonium]

B1: sucrose transporter P62 (StSUT1) (Solanum tuberosum) (protein)
chain: MENGTKREGLGKLTVSSSLQVEQPLAPSKLWKIIVVASIAAGVQFGWALQLSLLTPYVQLLGIPHKFASFIWLCGPISGMIVQPVVGYYSDNCSSRFGRRRPFIAAGAALVMIAVFLIGFAADLGHASGDTLGKGFKPRAIAVFVVGFWILDVANNMLQGPCRALLADLSGGKSGRMRTANAFFSFFMAVGNILGYAAGSYSHLFKVFPFSKTKACDMYCANLKSCFFIAIFLLLSLTTIALTLVRENELPEKDEQEIDEKLAGAGKSKVPFFGEIFGALKELPRPMWILLLVTCLNWIAWFPFFLYDTDWMAKEVFGGQVGDARLYDLGVRAGAMGLLLQSVVLGFMSLGVEFLGKKIGGAKRLWGILNFVLAICLAMTILVTKMAEKSRQHDPAGTLMGPTPGVKIGALLLFAALGIPLAATFSIPFALASIFSSNRGSGQGLSLGVLNLAIVVPQMLVSLVGGPWDDLFGGGNLPGFVVGAVAAAASAVLALTMLPSPPADAKPAVAMGLSIK
notes: whole-cell [14C]-sucrose uptake; no tag or borders given
Km [2]: 10 mM | Km [3]: 1 mM
